Test results taken from patent publication US20240174741A1 (IMMUNOME, published 2024).

Target: T1, IL-36g (human, UniProt Q9NZH8 1-169, limits assumed)
T1 sequence (looked up): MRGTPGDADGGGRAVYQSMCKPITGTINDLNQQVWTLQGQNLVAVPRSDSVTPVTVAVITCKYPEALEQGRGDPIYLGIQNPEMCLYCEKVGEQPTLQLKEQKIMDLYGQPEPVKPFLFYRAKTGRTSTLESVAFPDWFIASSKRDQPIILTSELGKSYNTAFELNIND
Assay: CDI HuProt native protein microarray, IL-1 family members
Description: To confirm specificity to IL-38, several lead candidate antibodies (CD1-M3, CD1-M8, NZB-M8) were analyzed in a High-Spec Cross-reactivity Assay using native HuProt arrays (CDI Laboratories). […] of antibody was incubated overnight in a cold room, washed, and probed with anti-human secondary antibodies. Fluorescence intensity (F635) as an indicator of binding was measured for each spot. CDI software quantified the specificity of the antibody to each spot based on a Z-score. Z-score is defined as [F635−(Average F635 on array)]/(Standard deviation of F635 on array). S-score is defined as the difference between the Z-score of a given protein and the Z-score of the next highest protein.

Z-score: -0.017
B1: CD1-M3 (antibody, V domains shown)
VH: EVQLQQSGPELVKPGASVKIPCKASGYTFTDYNMDWVKQSHGKSLEWIGDINPNNGGTIYNQKFKGKATLTVDKSSSTAYMELRSLTSEDTAVYYCSRPYYGYFAYWGQGTLVTVSA
VL: DVVMTQSPLSLPVSLGDQASISCRSSQSLVHSHENTFLHWYLQKPGQSPKLLIYRVSNRFSGVPDRFSGSGSGTDFTLKISRVEAEDLGVYFCSQSTHVPLTFGAGTKLELK
notes: Mouse monoclonal from a hybridoma of a CD-1 mouse immunized with full length recombinant IL-38
